{
  "source": "patent US20090186027A1",
  "key": {"[1]": {"biological_target": "β-amyloid peptide 1-40 (UniProt P05067)", "assay": "cell-based or functional assay"}, "[2]": {"biological_target": "biotinylated peptide composed of amino acids 1-16 of the Aβ peptide (UniProt P05067)", "assay": "phage ELISA screen of colonies after biopanning, negative control"}},
  "data": [
    {"substance": "10D5 (monoclonal antibody against the N terminus of Aβ peptide)", "values": [
      {"measurement": "Percent Aggregation (ThT emission at 485 nm), plus 1 µM 10D5", "setting": "[1]", "value": 61.4, "unit": "%"},
      {"measurement": "Percent Disaggregation (ThT), plus 1 µM 10D5", "setting": "[1]", "value": 38.6, "unit": "%"}
    ]},
    {"substance": "helper phage M13KO7", "values": [
      {"measurement": "absorbance at 492 nm (OD)", "setting": "[2]", "value": "0.003 to 0.005", "unit": "OD"}
    ]}
  ]
}
